Data taken from the supplement of paper PMC9170038.

Tested on: MS2 coat protein
Test: apparent KD of MS2 coat protein; higher = weaker reporter binding
Conditions: Eterna round: R107
Procedure: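 RNA-MaP round R107: designed RNA switches with theophylline, tryptophan, arginine or FMN aptamers are transcribed on-chip within common flanks. They are titrated with SNAP-549-labelled MS2 coat protein in RNA-MaP buffer (100 mM Tris pH 7.5, 80 mM KCl, 4 mM MgCl2), without ligand or with the indicated ligand. Median apparent KD per design.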

[1] = input ligand: theophylline 20 uM
[2] = input ligand: theophylline 2 mM
[3] = input ligand: tryptophan 2.4 mM

Sequence | apparent KD of MS2 coat protein (input ligand: arginine 13.2 mM) [nM] | apparent KD of MS2 coat protein (input ligand: none) [nM] | apparent KD of MS2 coat protein [1] [nM] | apparent KD of MS2 coat protein [2] [nM] | apparent KD of MS2 coat protein [3] [nM]
AGAGUCAGACAAAAGUCUGGCUCAACCGAAGGAGCGUCCGAAAGGACAGGUAGGUCGCGGUUACCUGAGGAUCACCCGGGUUCCU [ArgAS 9 #OpenEnded #AlternativeMS2] | 100 | 65 | 110 | 1040 | 659
AGAGUCUAGUCGGCCGCCACUCAUGUCCAAAGGACAUGAGGAUCACCCAUGUACCUAAGGUACAUGAGGACCGGGACUGGACUCA [Omei Tryp B SS C v5] | 13.1 | 24.4 | 131 | 336 | 7.92
AGAGUUAGACAAAAGUCUAGCUCACCAGAAGGAGCGUCCGAAAGGACAGGUAGGUCGCUGGUACGUGAGGAUCACCCACGUUCCU [ArgAS 18 #OpenEnded #AlternativeMS2] | 21.6 | 24.6 | 26.3 | 28.4 | 23.1
AGAUAACAUGGUUUAAUAAGAUAAACUGAUACCAGUGUAUAUAAUCACCCUUGGCAGCAGCAACAUGAGGAUCACCCAUGUAAUA [JR_SSTheophyA_Sub014] | 14.9 | – | 19.6 | – | 20.6
AGAUGUAGCGGAAGGAGCGUCAUGAGGAUCACCCAUGACUCCCGUUGUGGGAGUUCCUUAGGUCAGGUAGGUCGCCGUUACGUCA [Omei Arg B SS B v5] | 91.4 | 390 | 563 | 596 | 426
AGCACAUGAGGAUCACCCAUGUGAGGUGAUACCAGUGAGAAGAAGCACCCUUGGCAGCACUUGGGUACAUGAGGAUCACCCAUGU [Exclusion Theophylline A GF9] | 47.4 | – | 77.8 | – | 54.7
AGCACAUGAGGAUCACCCAUGUGUGGGUACCGAGGACCGGUACGGCCGCCACUCGCAGGACAUGAGGAUCACCCAUGUGCCGCCG [SSTA DOUBLE!!! :-D #7] | 19.7 | 30.5 | 33.2 | 41.2 | 43.4
AGCAUGUUAGCAGAUACCAGACGUUUUAUGAUCCAUGUAACAUGAGGAUCACCCAUGUAAGUCCCUUGGCAGCUGAAAUAAUGCA [JR_SSTheophyB_Sub011] | 75.7 | – | 187 | – | 127
AGCAUUGUAACAGAUACCAGACUUUUAAUGCCUCUAAUAACAUGAGGAUCACCCAUGUAUGUCCCUUGGCAGCUGUUAUGAUGCA [JR_ExcTheophyB_Sub008] | 68.1 | – | 171 | – | 112
AGCCCUGUACUAGAUACCAGCUACAUGAGGAUCACCCAUGUGCGUCAAGACUGACUGUGUAGCCCUUGGCAGCUGCUCGCAUGUA [Exclusion - Theophylline B (Freestyle 2)] | 19.7 | – | 29.9 | – | 20.9
AGCCUAUUACAUGAGGAUCACCCAUGUGAUACCAGUCAGGAAACUGACCCUUGGCAGCGCAUGAGGAUCACCCAUGCGCUAGGCA [Omei Theo A Exc A v5] | 9.15 | – | 12.3 | – | 10
AGCGACAUGCGUGAUACCAGCUACAUGAGGAUCACCCAUGUACGUCAGAAAUGACUGUGUAGCCCUUGGCAGCAUAAUGCAUGUC [Exclusion - Theophylline B (Freestyle 19)] | 38.3 | – | 60.6 | – | 44
AGCGACAUGCGUGAUACCAGCUACAUGAGGAUCACCCAUGUCAGCAGGAAACUGCUGUGUAGCCCUUGGCAGCACAGUGCAUGUC [Exclusion - Theophylline B (Freestyle 28)] | 12.9 | – | 18.1 | – | 13.8
AGCGCAGGUCCUGAUACCAGUGACAUGAGGAUCACCCAUGUCCGAUGGGCCUGCCUCUGACACCCUUGGCAGCAGGGCUUGUGCU [#14 Exclusion-TheophyllineB] | 20 | – | 49.8 | – | 21.3
AGCUACUCGUUCCUCAUGUACGAGUGGCAACGAGGACCGGUACGGCCGCCACUCGAAUAAACAUGAGGAUCACCCAUGUACAAAU [T''-M-T'-T-MS2 - Design 8] | 42.9 | – | 168 | 179 | –
